Biological target: PRMT1 (UniProt Q99873)
Test: co-IP with Flag antibody, western blot
Details: reference: Flag-RUNX1 wild type; sites T207

binding against the reference: weaker
Substance: RUNX1 (from UniProt Q01196) Flag-RUNX1 T207A
